The source of these data is publication PMC6078952, “Insights into the structure and dynamics of lysyl oxidase propeptide, a flexible protein with numerous partners” (Scientific Reports, 2018).

First the molecules themselves.
B2: Lysyl oxidase propeptide (LOX-PP) (Pro24Leu) (domain or fragment, human, UniProt P28300 22-168, looked up)
chain: APLAAGQQQPPREPPAAPGAWRQQIQWENNGQVFSLLSLGSQYQPQRRRDPGAAVPGAANASAQQPRTPILLIRDNRTAAARTRTAGSSGVTAGRPRPTARHWFQAGYSTSRAREAGASRAENQTAPGEVPALSNLRPPSRVDGMVG
modifications: N-linked glycans (removed by PNGase F)
notes: propeptide of human lysyl oxidase, UniProtKB P28300, residues 22-168; expressed from the pCEP-Pu-BM40 vector; also called propeptide of human lysyl oxidase; source: HEK293-EBNA, purified (anti-FLAG resin)

What all share (experiment): SPR; SPR imaging (SPRi, Biacore Flexchip): partners spotted in triplicate on a bare gold chip at 0.06 to 1 mg/ml; purified LOX-PP injected at 2 µM and recirculated for 20 min; PBS with 0.05% Tween 20, 25 °C
Conditions in all cases: both partners purified

Assay [1] has as its target B2.
Assay [2] deals with T1, Collagen VI (vWF1 domain) (UniProt P12109 20-256).
T1 construct: collagen alpha-1(VI) chain, UniProtKB P12109, residues 20-256 (vWF1 domain); also called Collagen VI alpha 1 chain (vWF1 domain); source: Expressed in the laboratory (PMID 24117177)
T1 sequence (looked up): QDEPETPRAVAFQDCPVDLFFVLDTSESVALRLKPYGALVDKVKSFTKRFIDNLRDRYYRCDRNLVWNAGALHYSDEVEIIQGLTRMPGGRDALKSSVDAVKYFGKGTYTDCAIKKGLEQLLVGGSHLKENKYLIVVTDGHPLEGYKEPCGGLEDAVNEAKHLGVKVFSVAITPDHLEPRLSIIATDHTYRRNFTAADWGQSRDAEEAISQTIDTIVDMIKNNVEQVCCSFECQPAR

The target in a further assay is T2, Dermatopontin (UniProt Q07507 19-201).
T2 construct: dermatopontin, UniProtKB Q07507; source: bought: Abcam, ab158310
T2 sequence (looked up): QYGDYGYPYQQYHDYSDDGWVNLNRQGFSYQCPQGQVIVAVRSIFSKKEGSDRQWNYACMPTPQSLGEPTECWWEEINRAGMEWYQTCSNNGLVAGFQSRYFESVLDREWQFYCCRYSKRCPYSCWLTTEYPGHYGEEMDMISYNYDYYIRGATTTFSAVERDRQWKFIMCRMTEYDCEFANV

Another assay has as its target T3, Fibromodulin (UniProt P13605 19-376).
T3 construct: proteoglycan; source: bought: Sigma-Aldrich, F6921
T3 sequence (looked up): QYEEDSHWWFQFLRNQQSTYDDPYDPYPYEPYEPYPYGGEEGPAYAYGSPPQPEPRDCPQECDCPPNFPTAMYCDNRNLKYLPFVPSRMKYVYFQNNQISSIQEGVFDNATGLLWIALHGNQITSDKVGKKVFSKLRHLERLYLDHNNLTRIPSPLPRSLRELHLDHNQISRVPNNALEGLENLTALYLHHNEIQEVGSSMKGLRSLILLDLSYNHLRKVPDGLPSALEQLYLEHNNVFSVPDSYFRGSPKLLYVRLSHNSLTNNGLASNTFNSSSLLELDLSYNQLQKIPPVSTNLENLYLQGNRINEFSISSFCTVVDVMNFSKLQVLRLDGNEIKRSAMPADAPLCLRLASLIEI

Assay [3] has as its target T4, Lysyl oxidase homolog 2 (LOXL2) (UniProt Q9Y4K0 26-774).
T4 construct: lysyl oxidase homolog 2, UniProtKB Q9Y4K0; also called lysyl oxidase-like 2; source: bought: R&D Systems, 2639-AO
T4 sequence (looked up): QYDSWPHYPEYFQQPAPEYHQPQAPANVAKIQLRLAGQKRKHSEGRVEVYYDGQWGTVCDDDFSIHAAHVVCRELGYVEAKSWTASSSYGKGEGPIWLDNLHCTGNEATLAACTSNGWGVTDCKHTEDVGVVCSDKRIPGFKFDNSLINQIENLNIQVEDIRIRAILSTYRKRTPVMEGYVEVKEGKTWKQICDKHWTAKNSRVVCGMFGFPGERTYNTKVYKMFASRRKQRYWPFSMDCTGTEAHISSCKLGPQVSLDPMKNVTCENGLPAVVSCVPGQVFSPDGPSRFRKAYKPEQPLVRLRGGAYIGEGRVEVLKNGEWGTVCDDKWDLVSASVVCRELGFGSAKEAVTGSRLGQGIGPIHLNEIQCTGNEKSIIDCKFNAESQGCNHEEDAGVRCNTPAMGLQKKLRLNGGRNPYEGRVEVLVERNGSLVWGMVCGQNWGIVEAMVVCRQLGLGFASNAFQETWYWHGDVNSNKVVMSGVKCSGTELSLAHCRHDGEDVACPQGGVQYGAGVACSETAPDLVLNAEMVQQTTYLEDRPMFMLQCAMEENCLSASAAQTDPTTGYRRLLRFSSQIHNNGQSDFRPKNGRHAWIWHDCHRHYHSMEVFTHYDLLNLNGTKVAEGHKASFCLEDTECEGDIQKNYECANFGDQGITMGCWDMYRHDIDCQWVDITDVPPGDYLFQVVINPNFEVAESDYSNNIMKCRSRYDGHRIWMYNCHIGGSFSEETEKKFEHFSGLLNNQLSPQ

In assay [4] the target is T5, Matrix metalloproteinase-2 (MMP-2) (UniProt P08253 30-660).
T5 construct: matrix metalloproteinase-2, UniProtKB P08253, residues 30-660; source: bought: R&D Systems, 902-MPN
T5 sequence (looked up): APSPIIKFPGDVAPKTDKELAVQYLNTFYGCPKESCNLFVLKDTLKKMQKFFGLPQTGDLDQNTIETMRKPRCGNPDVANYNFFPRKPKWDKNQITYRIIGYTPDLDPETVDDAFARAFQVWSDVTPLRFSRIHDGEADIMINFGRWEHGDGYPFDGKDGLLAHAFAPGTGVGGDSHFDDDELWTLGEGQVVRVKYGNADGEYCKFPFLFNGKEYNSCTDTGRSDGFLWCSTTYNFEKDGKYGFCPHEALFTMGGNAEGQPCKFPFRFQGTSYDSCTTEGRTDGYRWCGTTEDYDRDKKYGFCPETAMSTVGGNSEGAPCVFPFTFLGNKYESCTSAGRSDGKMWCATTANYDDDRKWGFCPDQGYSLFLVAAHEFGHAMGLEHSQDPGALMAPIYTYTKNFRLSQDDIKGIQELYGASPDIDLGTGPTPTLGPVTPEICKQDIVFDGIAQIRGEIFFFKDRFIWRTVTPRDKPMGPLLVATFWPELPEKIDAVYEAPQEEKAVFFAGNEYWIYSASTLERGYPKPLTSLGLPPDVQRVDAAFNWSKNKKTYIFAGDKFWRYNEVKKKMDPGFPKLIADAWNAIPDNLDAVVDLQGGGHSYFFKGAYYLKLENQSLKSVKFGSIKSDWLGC

For assay [5], the target named is T6, Transglutaminase-2 (TG-2), mutant Cys277Ser (UniProt P21980 1-687, Cys277Ser).
T6 construct: transglutaminase-2, UniProtKB P21980; source: bought: Zedira, T018
T6 sequence (looked up): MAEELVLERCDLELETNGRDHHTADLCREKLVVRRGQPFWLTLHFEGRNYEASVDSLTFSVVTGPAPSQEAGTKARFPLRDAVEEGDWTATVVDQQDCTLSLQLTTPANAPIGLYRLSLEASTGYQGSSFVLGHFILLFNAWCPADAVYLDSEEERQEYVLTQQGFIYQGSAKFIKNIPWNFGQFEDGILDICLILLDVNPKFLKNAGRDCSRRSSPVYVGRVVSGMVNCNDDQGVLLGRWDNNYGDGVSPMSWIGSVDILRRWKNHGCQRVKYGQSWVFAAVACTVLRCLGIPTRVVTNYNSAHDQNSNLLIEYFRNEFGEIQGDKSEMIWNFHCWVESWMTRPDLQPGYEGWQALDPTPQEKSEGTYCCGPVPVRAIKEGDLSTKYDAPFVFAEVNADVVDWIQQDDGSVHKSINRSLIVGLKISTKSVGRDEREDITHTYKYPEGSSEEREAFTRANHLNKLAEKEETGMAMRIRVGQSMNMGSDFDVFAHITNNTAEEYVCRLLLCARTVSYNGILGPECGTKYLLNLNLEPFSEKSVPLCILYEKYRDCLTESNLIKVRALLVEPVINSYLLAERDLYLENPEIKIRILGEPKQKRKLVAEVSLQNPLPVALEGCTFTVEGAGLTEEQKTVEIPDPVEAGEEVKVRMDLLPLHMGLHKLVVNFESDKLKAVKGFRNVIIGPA

B1: Epidermal growth factor (EGF) (ligand, UniProt P01133 971-1023, looked up)
chain: NSDSECPLSHDGYCLHDGVCMYIEALDKYACNCVVGYIGERCQYRDLKWWELR
notes: epidermal growth factor, feature PRO_0000007541 of pro-epidermal growth factor, UniProtKB P01133; source: bought: Sigma-Aldrich, E9644
For the molecule B1, the binding result in assay [1] is “binds”.
Regarding B2, the binding result (in assay [2]; with Dermatopontin; in the assay with Fibromodulin; in assay [3]; in assay [4]; in assay [5]) was “binds” in each case.

B3: Fibronectin fragment III1-C (anastellin) (domain or fragment)
chain: not shown
notes: anastellin, fragment III1-C of fibronectin, UniProtKB P02751, residues 631-702; source: bought: Sigma-Aldrich, F3542
As for B3, in assay [1], the binding result was “binds”.
